B1: Polycomb group RING finger protein 2 (Homo sapiens), P35227 (parent)
chain: MHRTTRIKITELNPHLMCALCGGYFIDATTIVECLHSFCKTCIVRYLETNKYCPMCDVQVHKTRPLLSIRSDKTLQDIVYKLVPGLFKDEMKRRRDFYAAYPLTEVPNGSNEDRGEVLEQEKGALSDDEIVSLSIEFYEGARDRDEKKGPLENGDGDKEKTGVRFLRCPAAMTVMHLAKFLRNKMDVPSKYKVEVLYEDEPLKEYYTLMDIAYIYPWRRNGPLPLKYRVQPACKRLTLATVPTPSEGTNTSGASECESVSDKAPSPATLPATSSSLPSPATPSHGSPSSHGPPATHPTSPTPPSTASGATTAANGGSLNCLQTPSSTSRGRKMTVNGAPVPPLT
partner: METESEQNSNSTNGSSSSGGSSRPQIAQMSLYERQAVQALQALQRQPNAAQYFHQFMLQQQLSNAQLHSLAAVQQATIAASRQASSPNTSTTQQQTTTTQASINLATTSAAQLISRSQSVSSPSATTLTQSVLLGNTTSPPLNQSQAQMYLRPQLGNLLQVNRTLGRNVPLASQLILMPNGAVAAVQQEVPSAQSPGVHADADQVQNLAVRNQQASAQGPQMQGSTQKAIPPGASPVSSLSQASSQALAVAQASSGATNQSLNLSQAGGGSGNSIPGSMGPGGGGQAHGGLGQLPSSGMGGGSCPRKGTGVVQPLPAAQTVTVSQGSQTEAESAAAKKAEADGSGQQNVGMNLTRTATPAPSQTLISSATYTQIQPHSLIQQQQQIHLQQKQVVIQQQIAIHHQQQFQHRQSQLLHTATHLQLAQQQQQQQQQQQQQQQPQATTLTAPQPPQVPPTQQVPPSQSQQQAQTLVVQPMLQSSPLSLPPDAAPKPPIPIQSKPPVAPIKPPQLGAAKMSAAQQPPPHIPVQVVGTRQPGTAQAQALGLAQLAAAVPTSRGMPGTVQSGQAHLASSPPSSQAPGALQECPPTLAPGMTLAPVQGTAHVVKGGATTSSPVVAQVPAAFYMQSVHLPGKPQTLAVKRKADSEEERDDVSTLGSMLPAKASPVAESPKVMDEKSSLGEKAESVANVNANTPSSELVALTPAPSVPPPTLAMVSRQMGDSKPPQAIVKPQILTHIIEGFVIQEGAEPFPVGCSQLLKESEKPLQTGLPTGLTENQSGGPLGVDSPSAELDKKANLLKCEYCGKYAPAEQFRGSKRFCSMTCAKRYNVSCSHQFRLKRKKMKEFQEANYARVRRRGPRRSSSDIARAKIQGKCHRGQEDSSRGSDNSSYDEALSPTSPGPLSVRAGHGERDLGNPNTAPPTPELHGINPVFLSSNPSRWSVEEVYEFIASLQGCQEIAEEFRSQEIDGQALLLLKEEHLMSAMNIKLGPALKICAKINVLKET
B2: Polycomb complex protein BMI-1 (Homo sapiens), P35226 (parent)
chain: MHRTTRIKITELNPHLMCVLCGGYFIDATTIIECLHSFCKTCIVRYLETSKYCPICDVQVHKTRPLLNIRSDKTLQDIVYKLVPGLFKNEMKRRRDFYAAHPSADAANGSNEDRGEVADEDKRIITDDEIISLSIEFFDQNRLDRKVNKDKEKSKEEVNDKRYLRCPAAMTVMHLRKFLRSKMDIPNTFQIDVMYEEEPLKDYYTLMDIAYIYTWRRNGPLPLKYRVRPTCKRMKISHQRDGLTNAGELESDSGSDKANSPAGGIPSTSSCLPSPSTPVQSPHPQFPHISSTMNGTSNSPSGNHQSSFANRPRKSSVNGSSATSSG
partner: B1 partner

Variants of: B1
Conditions: with phc1_human PHC1, P78364

Variant	effect of a mutation on the interaction
MHRTTRIKITELNPHLMCALCGGYFIDATTIVECLHSFCKTCIVRYLETNKYCPMCDVQVHKTRPLLSIRSDKTLQDIVYKLVPGLFKDEMKRRRDFYAAYPLTEVPNGSNEDRGEVLEQEKGALSDDEIVSLSIEFYEGARDRDEKKGPLENGDGDKEKTGVRALRCPAAMTVMHLAKFLRNKMDVPSKYKVEVLYEDEPLKEYYTLMDIAYIYPWRRNGPLPLKYRVQPACKRLTLATVPTPSEGTNTSGASECESVSDKAPSPATLPATSSSLPSPATPSHGSPSSHGPPATHPTSPTPPSTASGATTAANGGSLNCLQTPSSTSRGRKMTVNGAPVPPLT [F165A]	decreasing interaction strength
MHRTTRIKITELNPHLMCALCGGYFIDATTIVECLHSFCKTCIVRYLETNKYCPMCDVQVHKTRPLLSIRSDKTLQDIVYKLVPGLFKDEMKRRRDFYAAYPLTEVPNGSNEDRGEVLEQEKGALSDDEIVSLSIEFYEGARDRDEKKGPLENGDGDKEKTGVRFLRCPAAMTVMHLAKDLRNKMDVPSKYKVEVLYEDEPLKEYYTLMDIAYIYPWRRNGPLPLKYRVQPACKRLTLATVPTPSEGTNTSGASECESVSDKAPSPATLPATSSSLPSPATPSHGSPSSHGPPATHPTSPTPPSTASGATTAANGGSLNCLQTPSSTSRGRKMTVNGAPVPPLT [F180D]	decreasing interaction strength
MHRTTRIKITELNPHLMCALCGGYFIDATTIVECLHSFCKTCIVRYLETNKYCPMCDVQVHKTRPLLSIRSDKTLQDIVYKLVPGLFKDEMKRRRDFYAAYPLTEVPNGSNEDRGEVLEQEKGALSDDEIVSLSIEFYEGARDRDEKKGPLENGDGDKEKTGVAFLRCPAAMTVMHLAKFLRNKMDVPSKYKVEVLYEDEPLKEYYTLMDIAYIYPWRRNGPLPLKYRVQPACKRLTLATVPTPSEGTNTSGASECESVSDKAPSPATLPATSSSLPSPATPSHGSPSSHGPPATHPTSPTPPSTASGATTAANGGSLNCLQTPSSTSRGRKMTVNGAPVPPLT [R164A]	decreasing interaction strength

Variants of: B2
Conditions: with phc1_human PHC1, P78364

Variant	effect of a mutation on the interaction
MHRTTRIKITELNPHLMCVLCGGYFIDATTIIECLHSFCKTCIVRYLETSKYCPICDVQVHKTRPLLNIRSDKTLQDIVYKLVPGLFKNEMKRRRDFYAAHPSADAANGSNEDRGEVADEDKRIITDDEIISLSIEFFDQNRLDRKVNKDKEKSKEEVNDKRALRCPAAMTVMHLRKFLRSKMDIPNTFQIDVMYEEEPLKDYYTLMDIAYIYTWRRNGPLPLKYRVRPTCKRMKISHQRDGLTNAGELESDSGSDKANSPAGGIPSTSSCLPSPSTPVQSPHPQFPHISSTMNGTSNSPSGNHQSSFANRPRKSSVNGSSATSSG [Y163A]	decreasing interaction strength
MHRTTRIKITELNPHLMCVLCGGYFIDATTIIECLHSFCKTCIVRYLETSKYCPICDVQVHKTRPLLNIRSDKTLQDIVYKLVPGLFKNEMKRRRDFYAAHPSADAANGSNEDRGEVADEDKRIITDDEIISLSIEFFDQNRLDRKVNKDKEKSKEEVNDKRYLACPAAMTVMHLRKFLRSKMDIPNTFQIDVMYEEEPLKDYYTLMDIAYIYTWRRNGPLPLKYRVRPTCKRMKISHQRDGLTNAGELESDSGSDKANSPAGGIPSTSSCLPSPSTPVQSPHPQFPHISSTMNGTSNSPSGNHQSSFANRPRKSSVNGSSATSSG [R165A]	decreasing interaction strength
MHRTTRIKITELNPHLMCVLCGGYFIDATTIIECLHSFCKTCIVRYLETSKYCPICDVQVHKTRPLLNIRSDKTLQDIVYKLVPGLFKNEMKRRRDFYAAHPSADAANGSNEDRGEVADEDKRIITDDEIISLSIEFFDQNRLDRKVNKDKEKSKEEVNDKRYLRCPAAMTVMHLRKDLRSKMDIPNTFQIDVMYEEEPLKDYYTLMDIAYIYTWRRNGPLPLKYRVRPTCKRMKISHQRDGLTNAGELESDSGSDKANSPAGGIPSTSSCLPSPSTPVQSPHPQFPHISSTMNGTSNSPSGNHQSSFANRPRKSSVNGSSATSSG [F178D]	decreasing interaction strength

From IntAct's records for PubMed 23523425
